Laboratory results as given in article PMC4383067 (Acta Neuropathologica Communications, 2015).

Target: Amyloid fibrils of full-length human PrP (human, UniProt P04156 23-230)
Assay: static light scattering kinetics
Settings: both partners purified

B1: Full-length human acetylcholinesterase (dimeric, recombinant) (enzyme)
chain: EGREDAELLVTVRGGRLRGIRLKTPGGPVSAFLGIPFAEPPMGPRRFLPPEPKQPWSGVVDATTFQSVCYQYVDTLYPGFEGTEMWNPNRELSEDCLYLNVWTPYPRPTSPTPVLVWIYGGGFYSGASSLDVYDGRFLVQAERTVLVSMNYRVGAFGFLALPGSREAPGNVGLLDQRLALQWVQENVAAFGGDPTSVTLFGESAGAASVGMHLLSPPSRGLFHRAVLQSGAPNGPWATVGMGEARRRATQLAHLVGCPPGGTGGNDTELVACLRTRPAQVLVNHEWHVLPQESVFRFSFVPVVDGDFLSDTPEALINAGDFHGLQVLVGVVKDEGSYFLVYGAPGFSKDNESLISRAEFLAGVRVGVPQVSDLAAEAVVLHYTDWLHPEDPARLREALSDVVGDHNVVCPVAQLAGRLAAQGARVYAYVFEHRASTLSWPLWMGVPHGYEIEFIFGIPLDPSRNYTAEEKIFAQRLMRYWANFARTGDPNEPRDPKAPQWPPYTAGAQQYVSLDLRPLEVRRGLRAQACAFWNRFLPKLLSATDTLDEAERQWKAEFHRWSSYMVHWKNQFDHYSKQDRCSDL
notes: also called AChE; dimeric AChE
stoichiometry N: 1
